From PMC3210382

Molecular target: BoNT/A toxoid (formaldehyde-inactivated botulinum neurotoxin type A, 150 kDa) (UniProt P0DPI1 2-1296)
Experiment: […]

Chain of BoNT/A toxoid (formaldehyde-inactivated botulinum neurotoxin type A, 150 kDa) (P0DPI1 2-1296): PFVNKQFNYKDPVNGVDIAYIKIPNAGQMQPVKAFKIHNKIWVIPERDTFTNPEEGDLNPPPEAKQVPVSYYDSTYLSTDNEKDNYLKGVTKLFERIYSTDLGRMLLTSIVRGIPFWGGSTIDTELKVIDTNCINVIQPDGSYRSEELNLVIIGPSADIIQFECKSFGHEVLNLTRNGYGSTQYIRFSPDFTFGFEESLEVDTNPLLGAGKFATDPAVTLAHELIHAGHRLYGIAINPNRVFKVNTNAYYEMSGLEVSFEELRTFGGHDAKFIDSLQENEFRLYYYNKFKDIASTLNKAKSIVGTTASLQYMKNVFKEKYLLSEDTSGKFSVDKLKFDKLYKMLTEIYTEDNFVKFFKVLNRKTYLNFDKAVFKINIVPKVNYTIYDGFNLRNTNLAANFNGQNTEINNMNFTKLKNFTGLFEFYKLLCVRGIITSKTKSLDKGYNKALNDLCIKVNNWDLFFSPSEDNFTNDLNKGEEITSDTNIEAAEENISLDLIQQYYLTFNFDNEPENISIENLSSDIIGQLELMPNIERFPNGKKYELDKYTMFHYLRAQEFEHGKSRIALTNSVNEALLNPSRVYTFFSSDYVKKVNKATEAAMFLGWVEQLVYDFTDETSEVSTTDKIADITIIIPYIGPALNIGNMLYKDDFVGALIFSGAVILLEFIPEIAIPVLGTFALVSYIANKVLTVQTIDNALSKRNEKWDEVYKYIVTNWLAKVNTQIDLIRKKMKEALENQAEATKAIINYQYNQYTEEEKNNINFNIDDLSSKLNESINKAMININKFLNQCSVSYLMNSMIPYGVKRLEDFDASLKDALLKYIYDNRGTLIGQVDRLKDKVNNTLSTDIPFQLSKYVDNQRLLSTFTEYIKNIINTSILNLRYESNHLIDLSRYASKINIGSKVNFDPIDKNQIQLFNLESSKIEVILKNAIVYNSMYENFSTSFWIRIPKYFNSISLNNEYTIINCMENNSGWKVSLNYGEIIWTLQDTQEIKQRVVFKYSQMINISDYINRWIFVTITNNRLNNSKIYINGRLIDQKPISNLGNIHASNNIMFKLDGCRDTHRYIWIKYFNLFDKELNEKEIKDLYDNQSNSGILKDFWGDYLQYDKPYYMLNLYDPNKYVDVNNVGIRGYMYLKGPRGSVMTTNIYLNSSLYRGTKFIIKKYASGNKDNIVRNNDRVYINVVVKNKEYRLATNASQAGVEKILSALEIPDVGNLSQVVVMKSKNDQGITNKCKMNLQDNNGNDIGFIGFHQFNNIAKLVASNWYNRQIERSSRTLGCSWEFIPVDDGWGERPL

B1: BoNT/A aptamer (76 nt) (ssDNA)
DNA: ATACCAGCTTATTCAATTGACATGACTGGGATTTTTGGCGAAATCGAAGGAAGCGGAGAGATAGTAAGTGCAATCT
binding signal: ~3.8 signal-to-background ratio
